According to patent publication US6613506B1, “Compositions and methods for inhibiting human immunodeficiency virus infection by down-regulating human cellular genes” (Subsidiary No. 3, Inc., priority 2000, dated 2003):

Test system: HIV
Assay: Selection of GSEs from PBMC library using CEM-ss cells
Format: cell-based
Method: A cell-derived random fragment library (RFL) was constructed using cDNA from peripheral blood mononuclear cells (PBMC). Four buffy coats were obtained from four healthy blood donors and PBMCs were purified by Ficoll gradient centrifugation followed by stimulation with PHA (1 μg/mL). Cells were removed at 5, 10, and 24 hours after the addition of PHA and total RNA was isolated by Trizol extraction. All time points from all donors were then pooled. Polyadenylated mRNA was purified from the total RNA by passages through an oligo-dT column. cDNA was synthesized from the polyadenylated RNA with random primers using the Gibco Superscript Choice system for cDNA Synthesis (Gibco BRL, Rockville, Md.). The cDNA was normalized using the PCR-Select cDNA Subtraction kit (Clontech, Palo Alto, Calif.) based on the suppression subtractive hybridization methods of Diatchenko et al. (1996, Proc. Natl. Acad. Sci. USA 93, 6025-6030, 1996). The primers used for the normalization were: […]
The normalized random fragments were digested with XhoI and Sse83871, purified on quick spin columns (available from Qiagen, Valencia, Calif.) and ligated into the SseI/XhoI site of a bicistronic retroviral vector, EMCVNgfrMPBIN. This vector was based on LXSNgfr as described in Dunn el al. (1999, Gene Therapy 6:130-137). Modifications included substitution of the Moloney murine leukemia virus LTR with the hybrid LTR described by Baum et al., 1995, (J. Virol. 69:7541-7547) and replacement of the SV40 promoter with encephalomyocarditis virus (EMCV) internal ribosomal entry site isolated from the plasmid, pCITE (available from Amersham, Arlington Heights, Ill.). The ligation mix was then transformed into competent cells. The total plasmid was purified from approximately 50 million clones.
The PBMC library was screened using the methods described above in Section 1F. A total of 14 GSEs were isolated using CEM-ss cells. […] The complement of SEQ ID NO:69 is represented by SEQ ID NO:70. CF-675 (SEQ ID NO:71) is another GSE that has substantial sequence identity with a gene encoding human translationally controlled tumor protein 1 (GenBank Accession No. HUMCH13C4A). The complement of SEQ ID NO:71 is represented by SEQ ID NO:72. CF-679 (SEQ ID NO:83) is another GSE that has substantial sequence identity with a gene encoding human translationally controlled tumor protein 1 (GenBank Accession No. HUMCH13C4A). The complement of SEQ ID NO:83 is represented by SEQ ID NO:84. […] The complement of SEQ ID NO:75 is represented by SEQ ID NO:76. […] The complement of SEQ ID NO:79 is represented by SEQ ID NO:80. […] The complement of SEQ ID NO:67 is represented by SEQ ID NO:68. […] The complement of SEQ ID NO:63 is represented by SEQ ID NO:64. CF-675 (SEQ ID NO:65) is another GSE that has substantial sequence identity with a gene encoding alpha enolase protein. The complement of SEQ ID NO:65 is represented by SEQ ID NO:66. […] The complement of SEQ ID NO:73 is represented by SEQ ID NO:74. […] The complement of SEQ ID NO:81 is represented by SEQ ID NO:82. […] The complement of SEQ ID NO:85 is represented by SEQ ID NO:86. […] The complement of SEQ ID NO:89 is represented by SEQ ID NO:90. […] The complement of SEQ ID NO:91 is represented by SEQ ID NO:92. […] The complement of SEQ ID NO:93 is represented by SEQ ID NO:94. Another member of the cluster is CF-686 (SEQ ID NO:95), also having substantial sequence identity with a gene encoding cell surface heparin binding protein (Liu et al., ibid.). The complement of SEQ ID NO:95 is represented by SEQ ID NO:96.

| Molecule | HIV-suppressive activity of the GSE and active orientation |
| --- | --- |
| CF-693: GSE, SEQ ID NO:75, sense; NEF interacting protein gene (sense GATTCTCAGCTGGTAGCTGGTGTTGCATTCAAGAAGACTTTCTCTTACGCTGGGTT; listed as Homo sapiens) | interferes with HIV replication in a sense orientation |
| CF-684: GSE, SEQ ID NO:91, sense; human tumorous imaginal disc protein gene (nucleic acid, listed as Homo sapiens) sense: AATCATTGTTTTTTCCTTTGTAAATGTTGATTCAGAAAAGGAAAGCACAGGCTAAGCAGTTGAAGGTTCCCCACCATTCAGTGAGAGCAG | interferes with HIV replication in a sense orientation |
| CF-673: GSE, SEQ ID NO:73, antisense; BBC-1 gene (nucleic acid, listed as Homo sapiens) antisense: TCATCACTGAGGAAGAGAAGAATTTCAAAGCCTTCGCTAGTCTCCGTATGGCCCGTGCCAACGCCCGGCTCTTCGGCACACGGGCAAAA | interferes with HIV replication as an antisense molecule |
| CF-674: GSE, SEQ ID NO:69, sense; human translationally controlled tumor protein 1 gene (nucleic acid, listed as Homo sapiens) sense: CTCTGTTCTTCAAGTTTCCCTTTGATTGATTTCATGTAATCTTTGATGTACTTCTTGTAGGCTTCTTTTGTGAAACTTGTTT | interferes with HIV replication in a sense orientation |
| CF-676: GSE, SEQ ID NO:63, antisense; alpha enolase gene (nucleic acid, listed as Homo sapiens) antisense: GTACAACCAGCTCCTCAGAATTGAAGAGGAGCTGGGCAGCAAGGCTAAGTTTGCCGGCAGGAACTTCAGAAACCCCTTGGCCAAGTAAGCTGTGGGCAGGCAAGCCCTTCGGTCACCTGTTGGCT | interferes with HIV replication as an antisense molecule |
| CF-653: GSE, SEQ ID NO:67, antisense; MIP-1 alpha gene (nucleic acid, listed as Homo sapiens) antisense: CCCACATTCCGTCACCTGCTCAGAATCATGCAGGTCTCCACTGCTGCCCTTGCTGTCCTCCTCTGCACCATGGCTCTCTGCAACCAGTTCTCTGCATCACTTGCTGCTGACACG | interferes with HIV replication as an antisense molecule |
| CF-660: GSE, SEQ ID NO:79, antisense; human hsp90 chaperone protein gene (nucleic acid, listed as Homo sapiens) antisense: GAGAGGGGGGATCTCATCAGGAACTGCAGCATTGGGTTCCTCTGCTGCCACTTCATCTTCATCAAT | interferes with HIV replication as an antisense molecule |
| CF-685: GSE, SEQ ID NO:93, antisense; cell surface heparin binding protein gene (nucleic acid, listed as Homo sapiens) antisense: TCGGGAGCCGCGGCTTATGGTGCAGACATGGCCAAGTCCAAGAACCACACCACACACAACCAGTCCCGAAAATGGCACAGAAATGGTATCAAGAAACCCCGAT | interfere with HIV replication as an antisense molecule |

Test system: HIV-1IIIB
Assay: Selection of GSEs from HeLa cell library using productive infection of CEM-ss cells
Format: cell-based
Method: Additionally, a normalized RFE library made from HeLa cells was transferred into CEM-ss cells and the neo resistant population was infected with TCID50 of 3000/10^6 cells of HIV-1IIIB. This RFE library was represented by 50×10^6 independent recombinant clones. Four and seven days after infection, a purified anti-CD4 monoclonal antibody, L77 (available from Becton Dickinson), was added at 5 Φg/mL to prevent syncytia formation. Syncytia formation is thought to be prevented by blocking the interaction between gp120 expressed on the surface of an infected cell and CD4 on the surface of an uninfected cell. […] At 10-12 days after infection, CD4^+, p24^− cell population representing uninfected cells were sorted. Genomic DNA from the CD4^+, p24^− cells was purified and used for PCR amplification of inserts with the vector-derived primers. The amplified mixture was digested with EcoRI and BamHI and cloned back into the retroviral vector. The selection was repeated for additional rounds.
The selection of GSEs from HeLa cell library using productive infection of CEM-ss cells isolated […] additional nucleic acid molecules which have substantial sequence identity with other cellular genes.
The selection of GSEs from a HeLa cell library using productive infection of CEM-ss cells isolated 21 additional nucleic acid molecules which have substantial sequence identity with other cellular genes. […] The complement of SEQ ID NO:25 is represented by SEQ ID NO:26. […] The complement of SEQ ID NO:27 is represented by SEQ ID NO:28. […] The complement of SEQ ID NO:29 is represented by SEQ ID NO:30. […] The complement of SEQ ID NO:31 is represented by SEQ ID NO:32. […] The complement of SEQ ID NO:33 is represented by SEQ ID NO:34. […] The complement of SEQ ID NO:35 is represented by SEQ ID NO:36. […] The complement of SEQ ID NO:37 is represented by SEQ ID NO:38. […] The complement of SEQ ID NO:39 is represented by SEQ ID NO:40. […] The complement of SEQ ID NO:41 is represented by SEQ ID NO:42. […] The complement of SEQ ID NO:43 is represented by SEQ ID NO:44. […] The complement of SEQ ID NO:45 is represented by SEQ ID NO:46. […] The complement of SEQ ID NO:47 is represented by SEQ ID NO:48. […] The complement of SEQ ID NO:49 is represented by SEQ ID NO:50. […] The complement of SEQ ID NO:51 is represented by SEQ ID NO:52. […] The complement of SEQ ID NO:53 is represented by SEQ ID NO:54. […] The complement of SEQ ID NO:55 is represented by SEQ ID NO:56. […] The complement of SEQ ID NO:57 is represented by SEQ ID NO:58. […] The complement of SEQ ID NO:59 is represented by SEQ ID NO:60. […] The complement of SEQ ID NO:61 is represented by SEQ ID NO:62. […] The complement of SEQ ID NO:77 is represented by SEQ ID NO:78. […] The complement of SEQ ID NO:87 is represented by SEQ ID NO:88. […] The complement of SEQ ID NO:99 is represented by SEQ ID NO:100. […] The complement of SEQ ID NO:101 is represented by SEQ ID NO:102. […] The complement of SEQ ID NO:103 is represented by SEQ ID NO:104. […] The complement of SEQ ID NO:105 is represented by SEQ ID NO: 106. […] The complement of SEQ ID NO:107 is represented by SEQ ID NO:108. […] The complement of SEQ ID NO:109 is represented by SEQ ID NO:110. […] The complement of SEQ ID NO:111 is represented by SEQ ID NO:112. […] The complement of SEQ ID NO:113 is represented by SEQ ID NO:114. […] The complement of SEQ ID NO:115 is represented by SEQ ID NO:116. […] The complement of SEQ ID NO:117 is represented by SEQ ID NO:118.

| Molecule | HIV-suppressive activity of the GSE and active orientation |
| --- | --- |
| CF-527: GSE, SEQ ID NO:41; eukaryotic release factor 1 gene; acts through a peptide (nucleic acid, listed as Homo sapiens, chemistry not fully specified, eukaryotic release factor 1 gene; acts through a peptide) DNA: CGTTTAAGAATGGAAAAGCGACATAACTATGTTCGGAAAGTAGCAGAGACTGCTGTGCAGCTGTTTATTTCTGGGGACAAAGTGAATGTGGCTGGTCTAGTTTTAGCTGGATCCGCTC | a peptide from which interferes with HIV replication |
| CF-50: GSE, SEQ ID NO:39, sense; squalene synthetase gene (nucleic acid, listed as Homo sapiens, chemistry not fully specified, squalene synthetase gene) sense: AAGTGAAATGCAGGTGAGAAGAACCTAAACATGAAAGGAAAGGGTGCCTCATCCCAGCAACCTGTCCTTGTGGGTGATGATCACTGTGCTGCTTGTGGCTCATGGCAGAGCATTCAGTGCCAA | exhibits its HIV-suppressive activities in the sense orientation |
